Assays:
Experiment in all cases: native gel or EMSA
[1] = biological target: T1, P. horikoshii aEF1α K125L mutant (Pyrococcus horikoshii, UniProt O59153 1-428, K125L)
T1 sequence: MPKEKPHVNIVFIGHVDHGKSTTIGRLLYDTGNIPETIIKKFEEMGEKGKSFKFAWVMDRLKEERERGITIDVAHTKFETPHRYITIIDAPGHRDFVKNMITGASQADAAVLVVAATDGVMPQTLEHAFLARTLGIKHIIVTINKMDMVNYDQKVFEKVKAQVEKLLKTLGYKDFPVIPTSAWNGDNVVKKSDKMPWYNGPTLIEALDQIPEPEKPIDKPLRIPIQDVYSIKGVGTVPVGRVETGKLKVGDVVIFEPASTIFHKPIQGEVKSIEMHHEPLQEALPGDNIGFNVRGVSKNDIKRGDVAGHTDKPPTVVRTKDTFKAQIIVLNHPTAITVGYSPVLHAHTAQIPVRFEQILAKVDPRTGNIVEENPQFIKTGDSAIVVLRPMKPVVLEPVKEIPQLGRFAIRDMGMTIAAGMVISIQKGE

[2] = biological target: T2, P. horikoshii aEF1α L166S mutant (Pyrococcus horikoshii, UniProt O59153 1-428, L166S)
T2 sequence: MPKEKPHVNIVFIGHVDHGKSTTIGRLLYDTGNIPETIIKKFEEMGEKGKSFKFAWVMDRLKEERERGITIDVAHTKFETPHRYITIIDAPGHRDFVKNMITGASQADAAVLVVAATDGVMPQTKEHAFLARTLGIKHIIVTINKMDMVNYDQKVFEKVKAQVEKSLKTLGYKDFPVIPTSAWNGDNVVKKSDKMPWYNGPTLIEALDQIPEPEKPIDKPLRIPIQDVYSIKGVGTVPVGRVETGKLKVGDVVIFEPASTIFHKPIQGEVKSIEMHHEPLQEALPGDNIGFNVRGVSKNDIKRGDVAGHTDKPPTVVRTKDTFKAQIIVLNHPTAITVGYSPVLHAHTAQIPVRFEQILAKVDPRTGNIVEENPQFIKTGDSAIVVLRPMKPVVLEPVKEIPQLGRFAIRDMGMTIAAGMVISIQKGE

[3] = biological target: T3, P. horikoshii aEF1α A360S mutant (Pyrococcus horikoshii, UniProt O59153 1-428, A360S)
T3 sequence: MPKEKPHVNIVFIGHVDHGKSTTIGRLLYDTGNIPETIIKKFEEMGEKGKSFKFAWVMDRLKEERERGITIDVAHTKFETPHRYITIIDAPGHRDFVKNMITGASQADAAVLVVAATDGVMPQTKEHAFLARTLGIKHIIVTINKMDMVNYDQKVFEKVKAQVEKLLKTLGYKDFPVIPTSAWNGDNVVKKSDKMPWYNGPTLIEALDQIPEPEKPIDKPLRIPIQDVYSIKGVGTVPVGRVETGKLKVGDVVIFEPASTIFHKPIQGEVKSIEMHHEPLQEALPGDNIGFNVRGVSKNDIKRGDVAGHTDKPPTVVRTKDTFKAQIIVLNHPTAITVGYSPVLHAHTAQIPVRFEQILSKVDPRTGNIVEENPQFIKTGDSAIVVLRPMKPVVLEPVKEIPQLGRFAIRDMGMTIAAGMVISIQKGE

[4] = biological target: T4, P. horikoshii aEF1α R132L mutant (Pyrococcus horikoshii, UniProt O59153 1-428, R132L)
T4 sequence: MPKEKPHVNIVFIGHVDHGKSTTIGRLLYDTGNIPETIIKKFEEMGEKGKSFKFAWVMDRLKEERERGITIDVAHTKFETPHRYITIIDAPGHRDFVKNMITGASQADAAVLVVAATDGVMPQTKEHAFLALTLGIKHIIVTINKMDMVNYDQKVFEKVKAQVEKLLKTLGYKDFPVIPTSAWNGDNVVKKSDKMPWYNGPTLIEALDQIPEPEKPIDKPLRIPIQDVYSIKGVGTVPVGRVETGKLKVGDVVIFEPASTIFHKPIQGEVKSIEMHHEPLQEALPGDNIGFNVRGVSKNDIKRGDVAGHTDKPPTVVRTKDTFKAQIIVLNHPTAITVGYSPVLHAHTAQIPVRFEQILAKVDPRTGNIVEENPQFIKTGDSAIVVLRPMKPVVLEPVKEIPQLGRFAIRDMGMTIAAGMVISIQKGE

[5] = biological target: T5, P. horikoshii aEF1α L359S mutant (Pyrococcus horikoshii, UniProt O59153 1-428, L359S)
T5 sequence: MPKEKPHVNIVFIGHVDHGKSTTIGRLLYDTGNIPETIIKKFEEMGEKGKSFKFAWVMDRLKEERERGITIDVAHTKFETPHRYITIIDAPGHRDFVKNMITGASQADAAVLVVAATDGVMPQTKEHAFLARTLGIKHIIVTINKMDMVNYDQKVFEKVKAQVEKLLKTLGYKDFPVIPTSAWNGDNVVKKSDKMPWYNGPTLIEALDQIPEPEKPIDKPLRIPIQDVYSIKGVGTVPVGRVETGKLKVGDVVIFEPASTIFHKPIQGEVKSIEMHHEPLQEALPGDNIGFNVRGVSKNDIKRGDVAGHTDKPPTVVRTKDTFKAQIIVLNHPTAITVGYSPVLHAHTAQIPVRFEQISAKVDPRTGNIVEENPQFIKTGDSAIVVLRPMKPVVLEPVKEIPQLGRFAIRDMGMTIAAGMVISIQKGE

[6] = biological target: T6, P. horikoshii aEF1α S423L mutant (Pyrococcus horikoshii, UniProt O59153 1-428, S423L)
T6 sequence: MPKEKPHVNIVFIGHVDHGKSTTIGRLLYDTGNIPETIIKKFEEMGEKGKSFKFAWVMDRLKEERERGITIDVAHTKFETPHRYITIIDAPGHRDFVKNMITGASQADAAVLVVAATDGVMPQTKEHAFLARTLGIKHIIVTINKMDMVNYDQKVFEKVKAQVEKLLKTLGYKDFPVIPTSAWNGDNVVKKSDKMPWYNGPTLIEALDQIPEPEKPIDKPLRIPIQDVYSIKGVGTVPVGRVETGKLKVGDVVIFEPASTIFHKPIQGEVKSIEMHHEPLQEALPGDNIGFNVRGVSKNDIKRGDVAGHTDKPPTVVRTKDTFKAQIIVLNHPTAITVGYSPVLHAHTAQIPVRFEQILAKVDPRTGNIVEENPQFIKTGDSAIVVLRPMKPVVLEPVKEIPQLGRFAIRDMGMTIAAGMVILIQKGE

[7] = biological target: T7, Pyrococcus horikoshii elongation factor aEF1α, wild type (Pyrococcus horikoshii, UniProt O59153 1-428)
T7 sequence: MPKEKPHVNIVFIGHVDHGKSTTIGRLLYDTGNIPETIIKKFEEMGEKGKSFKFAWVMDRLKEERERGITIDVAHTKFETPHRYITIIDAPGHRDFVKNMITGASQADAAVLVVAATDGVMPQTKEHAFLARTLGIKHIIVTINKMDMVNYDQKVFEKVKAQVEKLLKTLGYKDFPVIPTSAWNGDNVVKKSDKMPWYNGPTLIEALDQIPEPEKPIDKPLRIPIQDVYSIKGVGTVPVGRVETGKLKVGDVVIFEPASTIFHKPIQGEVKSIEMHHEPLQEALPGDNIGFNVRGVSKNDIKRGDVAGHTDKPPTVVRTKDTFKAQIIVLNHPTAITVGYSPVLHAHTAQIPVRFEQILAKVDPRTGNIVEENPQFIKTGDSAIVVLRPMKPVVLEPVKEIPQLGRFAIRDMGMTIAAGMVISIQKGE

Measured: binding result

B1: Pyrococcus horikoshii ribosomal stalk protein aP1, wild type (natural protein, UniProt O57705 1-108, looked up)
chain: MEYVYAALLLHSVGKEINEENLKAVLQAAGVEPEEARIKALVAALEGVNIDEVIEKAAMPVAVAAAPAAAPAEAGGEEKKEEEKKEEEEKEEEVSEEEALAGLSALFG
not listed: [7]
binds: all other assays above

B2: P. horikoshii aP1 L100S mutant (natural protein, Pyrococcus horikoshii, UniProt O57705 1-108, looked up)
chain: MEYVYAALLLHSVGKEINEENLKAVLQAAGVEPEEARIKALVAALEGVNIDEVIEKAAMPVAVAAAPAAAPAEAGGEEKKEEEKKEEEEKEEEVSEEEASAGLSALFG
binds: [7]

Source: article PMC4267659 (Nucleic Acids Research, 2014)
